Experiment [1] has as its target T1, human plasma Kallikrein (human, UniProt P03952 20-638, limits assumed).
T1 construct: also called hPK; human PK
Nature of the experiment: enzyme inhibition assay.

The target of experiment [2] is T1, human plasma Kallikrein. Nature of the experiment: enzyme inhibition assay. This is another data set of the same source.
Experiment [3] concerns the target T2, Rat plasma Kallikrein (rat, UniProt P14272 391-638, limits assumed).
T2 construct: domain: catalytic domain; also called rPK; rat PK
Nature of the experiment: enzyme inhibition assay.

Experiment [4] deals with T2, Rat plasma Kallikrein. Briefly: enzyme inhibition assay; values relative, not absolute.
For experiment [5], the target named is T1, human plasma Kallikrein. Briefly: enzyme inhibition assay. This is another data set of the same source.
Experiment [6] addresses T1, human plasma Kallikrein. Nature of the experiment: enzyme inhibition assay. This is another data set of the same source.
The target of experiment [7] is T1, human plasma Kallikrein. Nature of the experiment: enzyme inhibition assay. The source holds these as a separate data set.
Experiment [8] deals with T3, Monkey plasma Kallikrein (monkey (Macaca mulatta), UniProt A0A1D5Q7U7 391-638).
T3 construct: domain: catalytic domain; also called mPK
Nature of the experiment: enzyme inhibition assay.

In experiment [9] the target is T1, human plasma Kallikrein. Briefly: enzyme inhibition assay. The source holds these as a separate data set.
For experiment [10], the target named is T2, Rat plasma Kallikrein. Nature of the experiment: enzyme inhibition assay. This is another data set of the same source.
Experiment [11] has as its target T1, human plasma Kallikrein. Nature of the experiment: enzyme inhibition assay. The source holds these as a separate data set.
Experiment [12] addresses T1, human plasma Kallikrein. Briefly: enzyme inhibition assay. This is another data set of the same source.
Experiment [13] deals with T1, human plasma Kallikrein. Briefly: enzyme inhibition assay. The source holds these as a separate data set.
Experiment [14] deals with T1, human plasma Kallikrein. Nature of the experiment: enzyme inhibition assay. This is another data set of the same source.
Experiment [15] deals with T1, human plasma Kallikrein. Nature of the experiment: enzyme inhibition assay. The source holds these as a separate data set.
The target of experiment [16] is T1, human plasma Kallikrein. Nature of the experiment: enzyme inhibition assay. This is another data set of the same source.
Experiment [17] addresses T1, human plasma Kallikrein. Nature of the experiment: enzyme inhibition assay. This is another data set of the same source.
Experiment [18] concerns the target T1, human plasma Kallikrein. Nature of the experiment: enzyme inhibition assay. This is another data set of the same source.
The target of experiment [19] is T1, human plasma Kallikrein. Briefly: enzyme inhibition assay. The source holds these as a separate data set.
Experiment [20] has as its target T1, human plasma Kallikrein. Briefly: enzyme inhibition assay. The source holds these as a separate data set.
In experiment [21] the target is T2, Rat plasma Kallikrein. Nature of the experiment: enzyme inhibition assay; values relative, not absolute. This is another data set of the same source.

For orientation: Ki means a dissociation constant, usually derived from enzyme kinetics or from competition with a known ligand. By IC50 is commonly meant the concentration needed to halve the response being measured.

Where two headings read alike, the source gives them in different places. Numbered stars: 1 amine (or outer) side, 2 acyl side, 3 side chain; on linkers, the order of the positions; unused ones are H or OH. Bridge positions count the residues as written; N and C are the ends. Square brackets hold non-standard residues; d marks the D form. Ends that are not written are not given here. Phe(4-guanidino) = N=C(N)Nc1ccc(C[C@H](N)C(=O)O)cc1; TBMB = c1c(C[*:1])cc(C[*:3])cc1C[*:2]; NMeR = CN[C@@H](CCCNC(=N)N)C(=O)O; hArg = N=C(N)NCCCC[C@H](N)C(=O)O; NMeS = CN[C@@H](CO)C(=O)O; Aze = O=C(O)[C@@H]1CCN1; Abu = CC[C@H](N)C(=O)O; Sar = CNCC(=O)O

T1 sequence (P03952 20-638 limits assumed): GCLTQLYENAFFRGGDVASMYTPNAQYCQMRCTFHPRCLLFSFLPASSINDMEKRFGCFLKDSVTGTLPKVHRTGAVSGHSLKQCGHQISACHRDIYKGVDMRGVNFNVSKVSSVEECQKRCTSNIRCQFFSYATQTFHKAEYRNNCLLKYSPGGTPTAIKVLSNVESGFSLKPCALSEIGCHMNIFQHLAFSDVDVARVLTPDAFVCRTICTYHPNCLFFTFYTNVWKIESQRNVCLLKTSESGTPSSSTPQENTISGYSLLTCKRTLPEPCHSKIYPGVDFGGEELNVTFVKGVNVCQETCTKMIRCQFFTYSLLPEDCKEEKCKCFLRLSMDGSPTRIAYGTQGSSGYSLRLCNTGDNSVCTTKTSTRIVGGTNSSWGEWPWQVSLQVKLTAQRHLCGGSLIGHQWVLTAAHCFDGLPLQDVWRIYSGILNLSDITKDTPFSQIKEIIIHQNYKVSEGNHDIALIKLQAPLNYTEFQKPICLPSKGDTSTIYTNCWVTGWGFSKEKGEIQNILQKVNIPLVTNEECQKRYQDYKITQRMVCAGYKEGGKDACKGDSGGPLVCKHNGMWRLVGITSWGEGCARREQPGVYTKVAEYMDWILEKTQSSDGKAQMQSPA
T2 sequence (P14272 391-638 limits assumed): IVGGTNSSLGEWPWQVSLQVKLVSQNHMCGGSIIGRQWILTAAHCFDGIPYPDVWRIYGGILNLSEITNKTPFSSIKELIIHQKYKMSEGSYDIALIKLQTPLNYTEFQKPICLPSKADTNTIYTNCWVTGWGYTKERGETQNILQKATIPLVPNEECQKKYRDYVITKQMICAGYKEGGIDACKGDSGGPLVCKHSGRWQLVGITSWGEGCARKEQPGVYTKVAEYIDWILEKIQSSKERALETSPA
T3 sequence (A0A1D5Q7U7 entry or part of it): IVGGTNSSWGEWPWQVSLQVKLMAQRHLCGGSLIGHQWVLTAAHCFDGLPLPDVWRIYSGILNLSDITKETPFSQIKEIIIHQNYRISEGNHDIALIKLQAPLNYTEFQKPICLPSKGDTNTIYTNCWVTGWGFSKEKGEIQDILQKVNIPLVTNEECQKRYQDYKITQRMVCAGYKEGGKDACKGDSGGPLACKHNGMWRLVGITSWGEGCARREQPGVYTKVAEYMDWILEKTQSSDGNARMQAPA

ACSWPARCLHQDLCA (linker 2-8-14 via TBMB; not fully specified (N-terminus, C-terminus)) [06-34-18 (01 + 05)] displayed a Ki in experiment [1] of 0.04 nM. Also, the IC50 in experiment [2] was determined as 0.07 nM; in experiment [3], 0.56 nM.

Take Ac-CSWPA[hArg]CLHQDLC-NH2 (linker 1-7-13 via TBMB) [Ac-(06-34-18) HomoArg5]: the IC50 in experiment [4] is 64 nM.

B1: Ac-(06-34-18) 4GuanPhe5 (peptide)
peptide: Ac-CSWPA[Phe(4-guanidino)]CLHQDLC-NH2
modifications: linker 1-7-13 via TBMB
SMILES: CC(=O)N[C@H]1CSCc2cc3cc(c2)CSC[C@H](NC(=O)[C@H](Cc2ccc(NC(=N)N)cc2)NC(=O)[C@H](C)NC(=O)[C@@H]2CCCN2C(=O)[C@H](Cc2c[nH]c4ccccc24)NC(=O)[C@H](CO)NC1=O)C(=O)N[C@@H](CC(C)C)C(=O)N[C@@H](Cc1c[nH]cn1)C(=O)N[C@@H](CCC(N)=O)C(=O)N[C@@H](CC(=O)O)C(=O)N[C@@H](CC(C)C)C(=O)N[C@H](C(N)=O)CSC3
B1 showed an IC50 in [4] of 21 nM. For the same molecule, the results for the Ki in experiment [5] and in experiment [6] were 0.34 nM and 0.3 nM, respectively.

AC[NMeS]WPARCLHQDLCA (linker 2-8-14 via TBMB; not fully specified (N-terminus, C-terminus)) [06-34-18 -N-MeSer1]: in experiment [1], the inhibition constant (Ki) turned out to be 0.56 nM. For the same molecule, in [7], the “fold loss in potency against the parent” value stood at 10 fold.

In the case of ACRWPARCTHQNYCA (linker 2-8-14 via TBMB; not fully specified (N-terminus, C-terminus), also called PK106) [06-54 (2A2)], the Ki in [8] was 6 nM; in experiment [9], 5 nM; in [10], 7 nM; in experiment [11] it was 0.49 nM.

As to Ac-CSW[Aze][Abu][NMeR]CLHQDLC-NH2 (linker 1-7-13 via TBMB) [Ac-(06-34-18) Aze3 Aba4 NMeArg5], in experiment [12], the affinity, expressed as Ki, was 2.8 nM.

Molecule Ac-CSW[Aze][Abu][Phe(4-guanidino)]CLHQDLC-NH2 (linker 1-7-13 via TBMB) [Ac-(06-34-18) Aze3 Aba4 4GuanPhe5] came in with an inhibition constant (Ki) in experiment [12] of 0.2 nM.

With AC[Sar]WPARC[Sar]HQDLCA (linker 2-8-14 via TBMB; not fully specified (N-terminus, C-terminus), also called AC N-MeGWPARCN-MeGHQDLCA) [06-34-03 - N-MeGly1,6], affinity in experiment [1] was put at a Ki of 24.8 nM.

B2: Ac-(06-34-18) Aze3 NMeArg5 (peptide)
peptide: Ac-CSW[Aze]A[NMeR]CLHQDLC-NH2
modifications: linker 1-7-13 via TBMB
SMILES: CC(=O)N[C@H]1CSCc2cc3cc(c2)CSC[C@H](NC(=O)[C@H](CCCNC(=N)N)N(C)C(=O)[C@H](C)NC(=O)[C@@H]2CCN2C(=O)[C@H](Cc2c[nH]c4ccccc24)NC(=O)[C@H](CO)NC1=O)C(=O)N[C@@H](CC(C)C)C(=O)N[C@@H](Cc1c[nH]cn1)C(=O)N[C@@H](CCC(N)=O)C(=O)N[C@@H](CC(=O)O)C(=O)N[C@@H](CC(C)C)C(=O)N[C@H](C(N)=O)CSC3
For B2, in experiment [5], the affinity corresponds to a Ki of 1.3 nM.

B3: Ac-(06-34-18) NMeArg5 (peptide)
peptide: Ac-CSWPA[NMeR]CLHQDLC-NH2
modifications: linker 1-7-13 via TBMB
SMILES: CC(=O)N[C@H]1CSCc2cc3cc(c2)CSC[C@H](NC(=O)[C@H](CCCNC(=N)N)N(C)C(=O)[C@H](C)NC(=O)[C@@H]2CCCN2C(=O)[C@H](Cc2c[nH]c4ccccc24)NC(=O)[C@H](CO)NC1=O)C(=O)N[C@@H](CC(C)C)C(=O)N[C@@H](Cc1c[nH]cn1)C(=O)N[C@@H](CCC(N)=O)C(=O)N[C@@H](CC(=O)O)C(=O)N[C@@H](CC(C)C)C(=O)N[C@H](C(N)=O)CSC3
Turning to B3, in experiment [4], it took 98 nM to reach half-maximal inhibition (IC50). Besides, the inhibition constant Ki in experiment [13] and in experiment [5] was 3.5 nM in each case. Besides, the “fold reduction in affinity against wildtype peptide” value in experiment [7] is 20 fold.

In turn, ACAWPARCAHQDLCA (linker 2-8-14 via TBMB; not fully specified (N-terminus, C-terminus), also called R1A/V6A) [06-34-03 - Ala1,6] returned an inhibitory constant (Ki) in experiment [1] of 0.147 nM.

B4: Ac-06-34-18(TMB)-NH2 (peptide)
peptide: Ac-CSWPARCLHQDLC-NH2
modifications: linker 1-7-13 via TBMB
SMILES: CC(=O)N[C@H]1CSCc2cc3cc(c2)CSC[C@H](NC(=O)[C@H](CCCNC(=N)N)NC(=O)[C@H](C)NC(=O)[C@@H]2CCCN2C(=O)[C@H](Cc2c[nH]c4ccccc24)NC(=O)[C@H](CO)NC1=O)C(=O)N[C@@H](CC(C)C)C(=O)N[C@@H](Cc1c[nH]cn1)C(=O)N[C@@H](CCC(N)=O)C(=O)N[C@@H](CC(=O)O)C(=O)N[C@@H](CC(C)C)C(=O)N[C@H](C(N)=O)CSC3
notes: also called Ac-(06-34-18) wildtype; Ac-(06-34-18) WPAR
Turning to B4, the Ki in experiment [12], in experiment [13], in experiment [14], in [15], in experiment [5] and in [16] was 0.17 nM in each case. For the same molecule, the Ki in [17], in experiment [18], in experiment [19] and in experiment [6] was 0.17 nM in each case. The molecule further came in with an IC50 in experiment [4] of 1.7 nM.

B5: Ac-(06-34-18) FPAR (peptide)
peptide: Ac-CSFPARCLHQDLC-NH2
modifications: linker 1-7-13 via TBMB
SMILES: CC(=O)N[C@H]1CSCc2cc3cc(c2)CSC[C@H](NC(=O)[C@H](CCCNC(=N)N)NC(=O)[C@H](C)NC(=O)[C@@H]2CCCN2C(=O)[C@H](Cc2ccccc2)NC(=O)[C@H](CO)NC1=O)C(=O)N[C@@H](CC(C)C)C(=O)N[C@@H](Cc1c[nH]cn1)C(=O)N[C@@H](CCC(N)=O)C(=O)N[C@@H](CC(=O)O)C(=O)N[C@@H](CC(C)C)C(=O)N[C@H](C(N)=O)CSC3
For B5, the inhibition constant (Ki) in [14] amounted to 6.28 nM. For the same molecule, the “fold change in Ki against WPAR parent” value in experiment [7] stood at 40 fold.

B6: Ac-(06-34-18) WPYR (peptide)
peptide: Ac-CSWPYRCLHQDLC-NH2
modifications: linker 1-7-13 via TBMB
SMILES: CC(=O)N[C@H]1CSCc2cc3cc(c2)CSC[C@H](NC(=O)[C@H](CCCNC(=N)N)NC(=O)[C@H](Cc2ccc(O)cc2)NC(=O)[C@@H]2CCCN2C(=O)[C@H](Cc2c[nH]c4ccccc24)NC(=O)[C@H](CO)NC1=O)C(=O)N[C@@H](CC(C)C)C(=O)N[C@@H](Cc1c[nH]cn1)C(=O)N[C@@H](CCC(N)=O)C(=O)N[C@@H](CC(=O)O)C(=O)N[C@@H](CC(C)C)C(=O)N[C@H](C(N)=O)CSC3
Consider B6, for which the affinity in [14] corresponds to a Ki of 0.41 nM.

B7: Ac-(06-34-18) Phe2 Tyr4 4GuanPhe5 (peptide)
peptide: Ac-CSFPY[Phe(4-guanidino)]CLHQDLC-NH2
modifications: linker 1-7-13 via TBMB
SMILES: CC(=O)N[C@H]1CSCc2cc3cc(c2)CSC[C@H](NC(=O)[C@H](Cc2ccc(NC(=N)N)cc2)NC(=O)[C@H](Cc2ccc(O)cc2)NC(=O)[C@@H]2CCCN2C(=O)[C@H](Cc2ccccc2)NC(=O)[C@H](CO)NC1=O)C(=O)N[C@@H](CC(C)C)C(=O)N[C@@H](Cc1c[nH]cn1)C(=O)N[C@@H](CCC(N)=O)C(=O)N[C@@H](CC(=O)O)C(=O)N[C@@H](CC(C)C)C(=O)N[C@H](C(N)=O)CSC3
The molecule B7 had a Ki in [20] of 0.4 nM. In experiment [21], this molecule came in with a half-inhibitory concentration (IC50) of 2.5 nM.

B8: Ac-(06-34-18) WPSR (peptide)
peptide: Ac-CSWPSRCLHQDLC-NH2
modifications: linker 1-7-13 via TBMB
SMILES: CC(=O)N[C@H]1CSCc2cc3cc(c2)CSC[C@H](NC(=O)[C@H](CCCNC(=N)N)NC(=O)[C@H](CO)NC(=O)[C@@H]2CCCN2C(=O)[C@H](Cc2c[nH]c4ccccc24)NC(=O)[C@H](CO)NC1=O)C(=O)N[C@@H](CC(C)C)C(=O)N[C@@H](Cc1c[nH]cn1)C(=O)N[C@@H](CCC(N)=O)C(=O)N[C@@H](CC(=O)O)C(=O)N[C@@H](CC(C)C)C(=O)N[C@H](C(N)=O)CSC3
The molecule B8 gave an inhibitory constant (Ki) in experiment [14] of 0.44 nM.

In turn, Ac-CSW[Aze][Abu][hArg]CLHQDLC-NH2 (linker 1-7-13 via TBMB) [Ac-(06-34-18) Aze3 Aba4 HomoArg5] showed a Ki in experiment [12] of 0.9 nM.

(Values after US10800813 (Bicycle, dated 2020).)
